US20230228751 (APTAMER DIAGNOSTICS LIMITED, published 2023)

Key:
[1] = molecular target: SARS-CoV-2 spike S2 subunit (SARS-CoV-2, UniProt P0DTC2 SEQ:1-528); assay: BLI; conditions: label: 5'-biotin
[2] = molecular target: SARS-CoV-2 spike protein trimer (SARS-CoV-2, UniProt P0DTC2); assay: BLI; conditions: label: 5'-biotin
Description: The aptamers described herein have been isolated using recombinant proteins which represent portions of the full viral surface spike protein (SEQ ID NO: 117). In particular, an amino acid sequence comprising residues Ser686 to Pro1213 of SEQ ID NO: 119 was used to isolate aptamers against the S2 subunit from the SARS-CoV-2 spike protein. For diagnostic and therapeutic applications of the aptamers, it is desirable that the aptamers are capable of binding to the spike protein in the full trimeric form. For example, any aptamers which bind to regions of the monomer which are not accessible in the trimeric spike may not be capable of binding to the virus and so would be less likely to perform well as a diagnostic or therapeutic. Several of the isolated aptamers and Optimers isolated against the S2 subunit of the SARS-CoV-2 spike protein (SEQ ID NO:119), were assessed for binding to the full trimeric spike using the BLI assay described above. Briefly, exemplar Optimers were immobilised onto BLI sensor probes and assessed for the ability to bind to the full SARS-CoV-2 spike protein trimer at a range of concentrations (500 nM, 166 nM, 55 nM, 18.5 nM, 6.1 nM, 2 nM and 0.6 nM in 1× ‘high salt’ aptamer selection buffer). […] Importantly, each of the S2_A2_F12 SEQ ID NO: 179), S2_B1_F12 SEQ ID NO: 188) and S2_G1_F21 (SEQ ID NO: 190) aptamers has a rapid association rate (0-120 sec) and a slow dissociation rate (120-240 sec); which may be important for many diagnostic applications.

[3] = molecular target: SARS-CoV-2 spike S1 subunit (SARS-CoV-2, UniProt P0DTC2 SEQ:1-670); assay: BLI; conditions: tags: His tag, SinoBiological 40591-V08B1; label: 5'-biotin
[4] = molecular target: SARS-CoV spike S1 subunit (SARS-CoV, UniProt P59594 SEQ:14-667); assay: ELONA; conditions: tags: SinoBiological; label: 5'-biotin

Row | Binder | binding result [1] | binding result [2] | binding result [3] | binding result [4]
1 | AATGCCGATGGGTCGGGGGGGTGGG (ssDNA) [S2_A2_F17] | binds | binds | – | –
2 | TGGATATGGGTGGGAGGGATGGGT (ssDNA) [S2_G1_F22] | binds | binds | – | –
3 | AATGCGTGGGAAGGGTGGGTGGGAGCATTGATA (ssDNA) [S1_A3_F18] | – | – | binds | no binding
4 | AATGCCGTGGACTGGTCGGGTTTGGATTCGGCA (ssDNA) [S2_B1_F18] | binds | binds | – | –
